Consider eight molecules from US20110111406A1 (published 2011).

Substitutions are numbered along the chain they refer to. Like-named read-outs stand apart in the source and are kept apart here.

In test [1] the target is T1, human IL-6 (Toray) (human, UniProt P05231 30-212).
T1 construct: also called human interleukin-6
The test is described as follows: Biacore T100, antibody captured on protein A/G, human IL-6 as analyte, 37C; ratio of KD at pH 5.5 to pH 7.4. On the procedure:
(§1) Kinetic analysis of antigen-antibody reactions at pH 5.5 and pH 7.4 was carried out using Biacore T100 (GE Healthcare) for the three types of antibodies prepared as mentioned above: Anti-IL6 wild type, Anti-IL6 clone 1, and Anti-IL-6 clone 2 (buffer: DPBS(−) (pH 7.4 or pH 5.5), 150 mM NaCl). The antibodies were bound to a sensor chip on which recomb-protein A/G (Pierce) was immobilized by amine coupling, and then human IL-6 (Toray) adjusted to an appropriate concentration was injected on the chip as an analyte. All the measurements were carried out at 37° C. Association rate constants kₐ (1/Ms) and dissociation rate constants kd (1/s) were calculated using Biacore T100 Evaluation Software (GE Healthcare), and dissociation constants KD (M) were calculated based on those values (Table 14). Furthermore, the ratio of affinity at pH 5.5 and pH 7.4 was calculated for each clone to evaluate the pH-dependent binding.
In general terms: Surface plasmon resonance follows binding to a sensor surface in real time, without labels.

Test [2] addresses T1, human IL-6 (Toray). Nature of the test: Biacore T100, human IL-6 as analyte; KD(pH 5.5)/KD(pH 7.4) compared with Anti-IL6 wild type. The procedure:
as §1

Test [3] has as its target T2, recombinant soluble human IL-6 receptor (SR344) (human, UniProt P08887 20-344).
T2 construct: In the 'membrane-type IL-6 receptor' Biacore assays the same SR344 was biotinylated and immobilized via streptavidin; also called soluble IL-6 receptor; membrane-type IL-6 receptor (as biotinylated SR344 immobilized on the sensor chip)
T2 sequence (looked up): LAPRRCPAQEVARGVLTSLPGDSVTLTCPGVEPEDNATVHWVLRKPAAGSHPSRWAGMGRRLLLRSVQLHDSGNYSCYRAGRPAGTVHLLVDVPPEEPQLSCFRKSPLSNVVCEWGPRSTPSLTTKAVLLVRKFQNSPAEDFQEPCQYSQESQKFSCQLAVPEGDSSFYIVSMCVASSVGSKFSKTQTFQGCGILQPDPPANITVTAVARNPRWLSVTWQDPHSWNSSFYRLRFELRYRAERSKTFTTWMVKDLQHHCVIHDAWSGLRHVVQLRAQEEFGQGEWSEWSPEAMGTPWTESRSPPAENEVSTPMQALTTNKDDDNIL
Nature of the test: Biacore T100, biotinylated SR344 immobilized via streptavidin (membrane-type IL-6 receptor model), antibody as analyte; ratio of kd at pH 5.8 to pH 7.4. On the procedure:
(§2) Binding to the membrane-type IL-6 receptor was evaluated by evaluating binding to the IL-6 receptor immobilized on a sensor chip. SR344 was biotinylated in accordance with a method known among persons with ordinary skill in the art, and the biotinylated SR344 was immobilized on the sensor chip via streptavidin using the affinity between streptavidin and biotin. All the measurements were carried out at 37° C. The mobile phase buffer was 10 mM MES (pH 5.8), 150 mM NaCl and 0.05% Tween 20.
(§3) The pH-dependently-binding clones were injected under the condition of pH 7.4 to allow them to bind to SR344, and then, the pH-dependent dissociation of each clone at the pH of the mobile phase, pH 5.8, was observed. The results are shown in FIG. 21 (results for Fv1-M71, Fv1-M73, Fv3-M71, and Fv3-M73 are shown in FIG. 21, while results for other clones are shown in FIGS. 17 and 19). Analyses were carried out in the same manner as in Example 10 and the pH dependencies of the dissociation rate constants of all of the eleven types of clones are shown in Table 12.

In test [4] the target is T2, recombinant soluble human IL-6 receptor …. The test is described as follows: Biacore T100, SR344 as analyte; KD(pH5.8)/KD(pH7.4) compared with WT. On the procedure:
(§4) Kinetic analyses of antigen-antibody reactions at pH 5.8 and pH 7.4 were carried out using Biacore T100 (GE Healthcare) on the four antibodies: humanized PM1 antibody (WT) and H3pI/L73, CLH5/L73, and H170/L82 produced in Examples 2 and 4 (buffer: 10 mM MES (pH 7.4 or pH 5.8), 150 mM NaCl, and 0.05% Tween 20). Various antibodies were bound onto a sensor chip immobilized with recomb-protein A/G (Pierce) by amine coupling. SR344 adjusted to concentrations of 9.8 to 400 nM was injected to the chip as an analyte. […] All the measurements were carried out at 37° C. Association rate constants kₐ (1/Ms) and dissociation rate constants kd (1/s) were calculated using Biacore T100 Evaluation Software (GE Healthcare), and dissociation constants KD (M) were calculated on the basis of those values (Table 5). Moreover, the ratio of the affinities at pH 5.8 and pH 7.4 were calculated for each clone to evaluate pH-dependent binding. All the measurements were carried out at 37° C.

For test [5] the target is unchanged. Nature of the test: Biacore T100, antibody captured on protein A/G, SR344 as analyte, 37C; ratio of KD at pH 5.8 to pH 7.4. On the procedure:
as §4

For test [6] the target is unchanged. Nature of the test: Biacore T100, biotinylated SR344 immobilized via streptavidin (membrane-type IL-6 receptor model), antibody as analyte; ratio of kd at pH 5.8 to pH 7.4. The procedure:
as §2, §3
This is another data set of the same source.

The target is the same in test [7]. Nature of the test: Biacore T100, antibody captured on protein A/G, SR344 as analyte, 37C; ratio of KD at pH 5.8 to pH 7.4. The procedure:
(§5) Kinetic analysis of antigen-antibody reactions at pH 7.4 and pH 5.8 was carried out using Biacore T100 (GE Healthcare) for the four types of antibodies prepared: WT-IgG1, H54/L28-IgG1, H170/L82-IgG1, and Fv4-IgG1(buffer: 10 mM MES (pH 7.4 or pH 5.8), 150 mM NaCl, 0.05% Surfactant-P20). The antibodies were bound to a sensor chip on which recomb-protein A/G (Pierce) was immobilized by amine coupling, and SR344 adjusted to an appropriate concentration was injected therein as an analyte. The association with and dissociation from SR344 of each type of antibody were observed on a real-time basis. All the measurements were carried out at 37° C. Association rate constants kₐ (1/Ms) and dissociation rate constants kd (1/s) were calculated using Biacore T100 Evaluation Software (GE Healthcare), and dissociation constants KD (M) were calculated based on those values (Table 17).
This is another data set of the same source.

For test [8] the target is unchanged. Nature of the test: Biacore T100, antibody captured on protein A/G, SR344 as analyte, 37C; ratio of kd at pH 5.8 to pH 7.4. The procedure: as §5
The target is the same in test [9]. Nature of the test: Biacore T100, biotinylated SR344 immobilized via streptavidin (membrane-type IL-6 receptor model), antibody as analyte; ratio of kd at pH 5.8 to pH 7.4. The procedure: as §2, §3
The source holds these as a separate data set.

B1: Anti-IL6 wild type (antibody, human IgG1, kappa, V domains shown)
VH: EVQLVESGGKLLKPGGSLKLSCAASGFTFSSFAMSWFRQSPEKRLEWVAEISSGGSYTYYPDTVTGRFTISRDNAKNTLYLEMSSLRSEDTAMYYCARGLWGYYALDYWGQGTSVTVSS
VL: QIVLIQSPAIMSASPGEKVTMTCSASSSVSYMYWYQQKPGSSPRLLIYDTSNLASGVPVRFSGSGSGTSYSLTISRMEAEDAATYYCQQWSGYPYTFGGGTKLEIKR
notes: also called WT (anti-IL-6 antibody of WO 2004/039826)
As to B1, the “KD(pH 5.5)/KD(pH 7.4)” value with human IL-6 (Toray) [1] came to 0.8.

B2: Anti-IL6 clone 1 (antibody, human IgG1, kappa, V domains shown)
VH: B1 VH with F32H, Y60H, D62H, Y103H
VL: B1 VL with L53H, Q89H, Y93H
notes: H chain (c1) and L chain (c1)
For B2, the “KD(pH 5.5)/KD(pH 7.4)” value with human IL-6 (Toray) [1] worked out at 10.3. For the same molecule, the “pH-dependent binding ability relative to WT” value with human IL-6 (Toray) [2] was found to be 10 times.

B3: Anti-IL-6 clone 2 (antibody, human IgG1, kappa, V domains shown)
VH: B1 VH with F32H, Y60H, D62H, Y103H
VL: B1 VL with N52H, L53H, Q89H, Y93H
notes: H chain (c1) and L chain (c2)
As to B3, the “KD(pH 5.5)/KD(pH 7.4)” value with human IL-6 (Toray) [1] is 13.5. The “pH-dependent binding ability relative to WT” value with human IL-6 (Toray) [2] is 10 times.

B4: H3pI/L73 (antibody, IgG1, V domains shown)
VH: QVQLQESGPGLVKPSETLSLTCAVSGHSISHDHAHSWVRQPPGEGLEWIGYISYSGITNYNPSLKGRVTISRDTSKNQFSLKLSSVTAADTAAYYCARSLARTTAMDYWGEGTLVTVSS
VL: DIQMTQSPSSLSASVGDSVTITCQASQHISSHLNWYQQKPGKAPELLIYYGSHLHSGVPSRFSGSGSGTDFTFTISSLEAEDAATYYCGQGNRLPYTFGQGTKVEIE
notes: antibody expressed as IgG1; also called H3pI/L73-IgG1; H3pl/L73
Take B4: the “kd(pH 5.8)/kd(pH 7.4)” value in test [3] and in [6] was 2.59 in each case. The “pH-dependent binding (affinity ratio) relative to WT” value in test [4] worked out at 15 times. In addition, the “KD(pH5.8)/KD(pH7.4)” value in test [5] is 41.3.

B5: H54/L28-IgG1 (antibody, V domains shown)
VH: B4 VH with H27Y, H31D, H33Q, H35W
VL: B4 VL with H28D, H32Y, H53E, G89Q, R93S
notes: tested as IgG1
Regarding B5, the “KD(pH5.8)/KD(pH7.4)” value in test [7] amounted to 0.7. Further, the “kd(pH 5.8)/kd(pH 7.4)” value in test [8] amounted to 2.

B6: Fv2-IgG1 (antibody, V domains shown)
VH: B4 VH with H27Y, H35W, Y51H, S63H, K65Q, G66D, S99F, T103I, M106H, Y108H
VL: B4 VL with H28D
notes: also called VH1-IgG1/L82
B6: the “kd(pH 5.8)/kd(pH 7.4)” value in test [3] and in test [6] was 7.18 in each case.

B7: humanized PM1 antibody (wild type, WT) (antibody, human IgG1, kappa, V domains shown)
VH: QVQLQESGPGLVRPSQTLSLTCTVSGYSITSDHAWSWVRQPPGRGLEWIGYISYSGITTYNPSLKSRVTMLRDTSKNQFSLRLSSVTAADTAVYYCARSLARTTAMDYWGQGSLVTVSS
VL: DIQMTQSPSSLSASVGDRVTITCRASQDISSYLNWYQQKPGKAPKLLIYYTSRLHSGVPSRFSGSGSGTDFTFTISSLQPEDIATYYCQQGNTLPYTFGQGTKVEIKR
notes: Tested as IgG1; also called WT-IgG1; H(WT)/L(WT)
As to B7, the “kd(pH 5.8)/kd(pH 7.4)” value in [3] is 1; in [6] it was 1; in [8] it was 2.9. Moreover, the “KD(pH5.8)/KD(pH7.4)” value in test [5] stood at 2.4; in test [7], 1.6.

B8: Fv4-IgG1 (antibody)
heavy: not shown
light: DIQMTQSPSSLSASVGDSVTITCQASTDISSHLNWYQQKPGKAPELLIYYGSHLLSGVPSRFSGSGSGTDFTFTISSLEAEDAATYYCGQGNRLPYTFGQGTKVEIERTVAAPSVFIFPPSDEQLKSGTASVVCLLNNFYPREAKVQWKVDNALQSGNSQESVTEQDSKDSTYSLSSTLTLSKADYEKHKVYACEVTHQGLSSPVTKSFNRGEC
notes: also called VH3-IgG1/VL3-CK
On to B8, for which the “kd(pH 5.8)/kd(pH 7.4)” value in test [3] worked out at 5.56; in test [6], 5.56; in test [9] it was 5.56; in test [8], 38.8. Also, in test [7], the “KD(pH5.8)/KD(pH7.4)” value amounted to 27.3.
